Patent publication US20200182883A1

Target: HIV-1 IIIB p24 recombinant protein (HIV-1 IIIB)
Test: SPR, mAb immobilized on a Protein A chip, 0-200 nM p24, room temperature

B1: N60P55 (antibody, V domains shown)
VH: QVQLRESGPGLVKPSATLSLTCIVSGGSMSGYYWSWIRQPPGKGLEWIGHIDNNERTISSPSLNSRVTVSPDTSRNRFTLTLSSVTAADTATYYCARHVVYGGLDIWGQGTLVTVSS
VL: EIVLTQSPGTLSLSPGERASLSCRASDIVSINYFAWYQQKPGQAPRLLISGASVRATGIPDRFSGSGSGTDFTLTINRLEPEDVAVYYCQQHGSSPTFGQGTKVEIK
Kd: 91.7 pM
koff: 6.55e-05 s⁻¹
kon: 715000 M⁻¹ s⁻¹
